From US20210388081A1 (Memorial Sloan Kettering, published 2021) come the findings set out here.

Substitutions are numbered along the chain they refer to.

First the molecules themselves.
B1: ET200-027 (scFv)
scFv: QSVLTQPPSVSGAPGQGVTIPCTGSSSNIGAGYDVHWYQQLPGTAPKLLIYGNNNRPSGVPDRFSGSRSGSSASLAITGLQAEDEADYYCQSYDSSLSDVVFGGGTKVTVLGSRGGGGSGGGGSGGGGSLEMAEVQLVQSGAEVKKPGATVKISCKVSGYTFTDYYMHWVQQAPGKGLEWMGLVDPEDGETIYAEKFQGRVTITADTSTDTAYMELSSLRSEDTAVYYCARYWSYSFDYLYMPEGNDWWGQGTLVTVSSTSGQAGQHHHHHHGAYPYDVPDYAS
notes: screened as phage clone; entry is VL-linker-VH-His tag-HA tag
B2: ET200-022 (scFv)
scFv: QSVVTQPPSVSAAPGQKVTISCSGSSSNIGNNYVSWYQQLPGTAPKLLIYDNNKRPSGIPDRFSGSKSGTSATLGITGLQTGDEADYYCGTWDSSLGAPYVFGTGTKVTVLGSRGGGGSGGGGSGGGGSLEMAEVQLVQSWGGSEQPGRSLRLSCAASGFTFDDYAMHWVRQAPGKGLEWVSGISWNSGSIGYADSVKGRFTISRDNAKNSLYLQMNSLRAEDTAMYYCARYRQVGSAYDSWGQGTLVTVSSTSGQAGQHHHHHHGAYPYDVPDYAS
notes: as for B1
B3: ET200-023 (scFv)
scFv: LPVLTQPPSVSVAPGKTARITCGGNNIGSKSVHWYQQKPGQAPVLVVYADSDRPSGIPERFSGSNSGNTATLTISRVEAGDEADYYCQVWDSSSYHNYVFGTGTKVTVLGSRGGGGSGGGGSGGGGSLEMAEVQLVQSGAEVKKPGASVKVSCKASGYTFTSYGISWVRQAPGQGLEWMGWISAYNGNTNYAQKLQGRVTMTTDTSTSTAYMELSSLRSEDTAMYYCARYWGFGVSDRWGQGTLVTVSSTSGQAGQHHHHHHGAYPYDVPDYAS
notes: as for B1
B4: ET200-039 (scFv)
scFv: NFMLTQPHSVSESPGKTVTISCTRSSGSIASNYVQWYQQRPGSSPTTVIYEDNQRPSGVPDRFSGSIDSSSNSASLTISGLKTEDEADYYCQSYDSSNWVFGGGTKLTVLGSRGGGGSGGGGSGGGGSLEMAEVQLVQSGAEVKKPGSSVKVSCKASGGTFSSYAISWVRQAPGQGLEWMGGIIPIFGTANYAQKFQGRVTITADESTSTAYMELSSLRSEDTAVYYCARSNYYYNDYWGQGTLVTVSSTSGQAGQHHHHHHGAYPYDVPDYAS
notes: screened as phage clone; entry is VL-linker-VH-His tag-HA tag; also called ET200-39
B5: ET200-035 (scFv)
scFv: B4 scFv with S44A, S97T, E133Q, S231Y, Y235F
notes: as for B1
B6: ET200-026 (scFv)
scFv: B4 scFv with R24G, S44A, S231N, Y233H
notes: as for B1
B7: ET200-020 (scFv)
scFv: QSVVTQPPSVSAAPGQKVTISCSGSTSNIGNNDVSWYQQLPGTAPKLLIYDNNKRPSGIPDRFSGSKSGTSATLGITGLQTGDEADYYCGTWDSSVSASWVFGRGTKLTVLGSRGGGGSGGGGSGGGGSLEMAQVQLVQSGAEVKKPGASVKVSCKASGYTFTSYGISWVRQAPGQGLEWMGWISAYNGNTNYPQKLQGRVTMTTDPSTSTAYMELRSLRSDDTAVYYCARSMTSFDYWGQGTLVTVSSTSGQAGQHHHHHHGAYPYDVPDYAS
notes: as for B1
B8: ET200-019 (scFv)
scFv: NFMLTQPHSVSESPGKTVTISCTRSSGSIASNYVQWYQQRPGSAPTTVIYEDNQRPSGVPDRFSGSIDSSSNSASLTISGLKTEDEADYYCQSYDSSNSWVFGGGTKLTVLGSRGGGGSGGGGSGGGGSLEMAQVQLVQSGAEVKRPGSSVKVSCTASGGTFSSDAISWVRQAPGQGLEWMGGIIPMFGTANYAQKFQGRVTITADESTSTAYMELSSLRSEDTAVYYCAREGYYYPSAYLGSVLNDISSVYDEWGQGTLVTVSSTSGQAGQHHHHHHGAYPYDVPDYAS
notes: as for B1
B9: ET200-021 (scFv)
scFv: QSVLTQPPSVSAAPGQKVTISCSGSNSNIGNNYVSWYQQLPGTAPKLLIYDNNKRPSGIPDRFSGSRSGTSATLGITGLQTGDEADYYCGTWNTTVTPGYVFGTGTKVTVLGSRGGGGSGGGGSGGGGSLEMAEVQLVQSGAEVKKPGASVKVSCKASGYTFTSYGISWVRQAPGQGLEWMGWISAYNGNTNYAQKLQGRVTMTTDTSTSTAYMELRSLRSDDTAMYYCARSVYDLDTWGQGTLVTVSSTSGQAGQHHHHHHGAYPYDVPDYAS
notes: as for B1

Chain of SLAMF9 protein (Q96A28 19-236 limits assumed): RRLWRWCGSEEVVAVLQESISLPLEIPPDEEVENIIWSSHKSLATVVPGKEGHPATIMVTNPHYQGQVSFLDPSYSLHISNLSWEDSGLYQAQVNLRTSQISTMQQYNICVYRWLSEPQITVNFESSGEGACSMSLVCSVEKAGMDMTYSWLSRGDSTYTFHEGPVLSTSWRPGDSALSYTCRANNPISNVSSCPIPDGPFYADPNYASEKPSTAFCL

The target of one test is T1, FcRL3, overexpressed on 3T3 cells (UniProt Q96P31 18-734, limits assumed).
T1 construct: whole, on cells
T1 sequence (looked up): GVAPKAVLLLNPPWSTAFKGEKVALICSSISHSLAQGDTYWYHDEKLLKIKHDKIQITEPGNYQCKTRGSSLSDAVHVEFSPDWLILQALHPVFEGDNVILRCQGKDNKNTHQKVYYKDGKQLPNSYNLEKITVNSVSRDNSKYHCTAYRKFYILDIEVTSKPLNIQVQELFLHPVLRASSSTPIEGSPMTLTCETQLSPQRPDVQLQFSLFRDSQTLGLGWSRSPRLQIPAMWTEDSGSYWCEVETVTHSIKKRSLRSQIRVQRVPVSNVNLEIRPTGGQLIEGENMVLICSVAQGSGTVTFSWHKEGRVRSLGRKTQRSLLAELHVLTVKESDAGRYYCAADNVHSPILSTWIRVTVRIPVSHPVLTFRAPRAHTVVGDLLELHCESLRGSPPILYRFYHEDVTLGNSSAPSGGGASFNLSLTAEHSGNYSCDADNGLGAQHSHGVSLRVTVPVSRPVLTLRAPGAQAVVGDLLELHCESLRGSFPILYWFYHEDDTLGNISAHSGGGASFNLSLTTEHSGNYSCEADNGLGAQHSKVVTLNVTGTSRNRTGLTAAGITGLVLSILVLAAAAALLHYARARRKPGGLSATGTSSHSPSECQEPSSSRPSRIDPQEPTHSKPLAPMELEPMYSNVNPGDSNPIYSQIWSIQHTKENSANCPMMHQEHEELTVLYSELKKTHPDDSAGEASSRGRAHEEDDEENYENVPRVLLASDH
Nature of the test: phage clone on 3T3-FcRL3 cells.
As to B1, the binding result is on record as “no binding”.
The same measure, in the same setting: next, B2: “no binding”; B3: “no binding”.
Still for that read-out and setting: to B4 belongs “no binding”; to B5, “no binding”; to B6, “no binding”.
On the same count and under the same terms, to B7 belongs “no binding”.
Take B8: the binding result was “no binding”.
Still for that read-out and setting: next, B9: “no binding”.

A further test concerns the target T2, FcRL4, overexpressed on 3T3 cells (UniProt Q96PJ5 20-515, limits assumed).
T2 construct: whole, on cells
T2 sequence (looked up): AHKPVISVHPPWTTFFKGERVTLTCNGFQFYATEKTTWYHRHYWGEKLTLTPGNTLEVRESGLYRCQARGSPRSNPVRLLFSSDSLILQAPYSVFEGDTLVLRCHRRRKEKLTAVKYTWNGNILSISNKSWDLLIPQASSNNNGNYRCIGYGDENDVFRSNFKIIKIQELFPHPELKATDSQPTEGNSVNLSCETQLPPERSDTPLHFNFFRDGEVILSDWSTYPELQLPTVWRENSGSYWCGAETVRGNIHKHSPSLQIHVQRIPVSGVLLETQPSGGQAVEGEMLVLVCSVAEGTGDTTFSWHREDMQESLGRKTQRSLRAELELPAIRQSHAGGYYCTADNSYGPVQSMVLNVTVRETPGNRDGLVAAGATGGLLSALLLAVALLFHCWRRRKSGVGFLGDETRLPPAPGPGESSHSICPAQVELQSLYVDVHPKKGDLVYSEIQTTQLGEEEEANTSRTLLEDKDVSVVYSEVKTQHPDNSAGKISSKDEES
Nature of the test: phage clone on 3T3-FcRL4 cells.
Take B1: the binding result is given as “no binding”.
Still for that read-out and setting: next, B2: “no binding”; B3: “no binding”; B4: “no binding”.
Still for that read-out and setting: to B5 belongs “no binding”; to B6, “no binding”.
On the same count and under the same terms, to B7 belongs “no binding”.
On to B8, for which the binding result was “no binding”.
The same measure, in the same setting: next, B9: “no binding”.

For the next test, the target named is T3, FcRL6, overexpressed on 3T3 cells (UniProt Q6DN72 20-434, limits assumed).
T3 construct: whole, on cells
T3 sequence (looked up): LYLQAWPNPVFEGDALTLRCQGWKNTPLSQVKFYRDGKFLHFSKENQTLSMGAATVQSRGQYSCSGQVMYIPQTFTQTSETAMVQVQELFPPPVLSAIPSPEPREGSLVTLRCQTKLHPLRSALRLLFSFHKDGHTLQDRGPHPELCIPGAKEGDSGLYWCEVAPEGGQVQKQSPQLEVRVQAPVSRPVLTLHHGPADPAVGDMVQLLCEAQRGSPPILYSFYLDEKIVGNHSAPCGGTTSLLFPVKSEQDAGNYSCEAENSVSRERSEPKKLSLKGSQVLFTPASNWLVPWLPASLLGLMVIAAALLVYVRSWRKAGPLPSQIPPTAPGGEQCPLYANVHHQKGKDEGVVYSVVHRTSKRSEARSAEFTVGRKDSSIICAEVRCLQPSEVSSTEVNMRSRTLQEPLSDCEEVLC
Nature of the test: phage clone on 3T3-FcRL6 cells.
Take B1: the binding result is “no binding”.
On the same count and under the same terms, to B2 belongs “no binding”; to B3, “no binding”; to B4, “no binding”.
On the same count and under the same terms, to B5 belongs “no binding”; to B6, “no binding”; to B7, “no binding”.
Still for that read-out and setting: next, B8: “no binding”.
Turning to B9, the binding result is “no binding”.

The next test addresses SLAMF9 protein (UniProt Q96A28 19-236, limits assumed). Description: phage clone on SLAMF9 protein.
With B1, the binding result was “no binding”.
Same read-out and setting: next, B2: “no binding”; B3: “no binding”.
In the case of B4, the binding result is on record as “no binding”.
On the same count and under the same terms, next, B5: “no binding”; B6: “no binding”; B7: “no binding”.
On the same count and under the same terms, to B8 belongs “no binding”; to B9, “no binding”.

For the next test, the target named is T4, FcRL2, overexpressed on 3T3 cells (UniProt Q96LA5 20-508, limits assumed).
T4 construct: whole, on cells
T4 sequence (looked up): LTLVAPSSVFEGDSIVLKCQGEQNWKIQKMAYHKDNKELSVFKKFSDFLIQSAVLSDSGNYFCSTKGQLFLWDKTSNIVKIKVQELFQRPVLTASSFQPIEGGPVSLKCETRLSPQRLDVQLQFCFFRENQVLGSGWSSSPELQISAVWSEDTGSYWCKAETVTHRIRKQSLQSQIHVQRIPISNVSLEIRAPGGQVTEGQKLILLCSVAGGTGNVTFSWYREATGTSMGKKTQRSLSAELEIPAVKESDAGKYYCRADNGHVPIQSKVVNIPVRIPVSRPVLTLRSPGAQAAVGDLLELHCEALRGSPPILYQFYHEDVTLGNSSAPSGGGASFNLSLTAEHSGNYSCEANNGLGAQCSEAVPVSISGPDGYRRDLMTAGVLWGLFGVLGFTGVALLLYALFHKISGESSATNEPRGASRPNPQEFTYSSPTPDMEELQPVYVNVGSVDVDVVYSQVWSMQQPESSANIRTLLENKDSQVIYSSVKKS
Description: phage clone on 3T3-FcRL2 cells.
Consider B1, for which the binding result is “no binding”.
The same measure, in the same setting: next, B2: “no binding”; B3: “no binding”.
Same read-out and setting: next, B4: “no binding”; B5: “no binding”; B6: “no binding”.
B7: the binding result is “no binding”.
Turning to B8, the binding result is “no binding”.
Still for that read-out and setting: to B9 belongs “no binding”.
